Laboratory results from US7387779B2, “Anti-angiogenic proteins and fragments and methods of use thereof” (Beth Israel Deaconess Medical Center, priority 1998, dated 2008).

B1: Tum-4: residues 181 to 244 of Tumstatin (SEQ ID NO:25) (protein)
chain: EFRASPFLECHGRGTCNYYSNSYSFWLASLNPERMFRKPIPSTVKAGELEKIISRCQVCMKKRH
modifications: Tum-4 (amino acids 181-244 of SEQ ID NO10)
B2: Tum-2: residues 1 to 132 of Tumstatin (SEQ ID NO:23) (protein)
chain: GLKGKRGDSGSPATWTTRGFVFTRHSQTTAIPSCPEGTVPLYSGFSFLFVQGNQRAHGQDLGTLGSCLQRFTTMPFLFCNVNDVCNFASRNDYSYWLSTPALMPMNMAPITGRALEPYISRCTVCEGPAIAI
modifications: Tum-2 (amino acids 1-132 of SEQ ID NO10)

Experiments:
C-PAE cells [1] = test: Cell attachment assay; type: cell-based, bovine; conditions: label = plate coating
Procedure: The attachment of HUVECs to Tumstatin-coated plates in the presence of integrin subunits α1 through α6, β1, and αvβ3 integrin blocking antibody was examined. This assay was performed according to the method of Senger et al. (Senger, D. R. et al, 1997, Proc. Natl. Acad. Sci. USA 94:13612-7), with minor modification. 96-well plates were coated with either human Tumstatin, mouse laminin-1, or human Type IV collagen (Collaborative Biomedical Prods., Bedford, Mass., USA) at a concentration of 10 μg/ml overnight at 37° C. Vitronectin (Collaborative Biomed. Prods.) at a concentration of 0.5 μg/ml was then used to coat the plates. The remaining protein binding sites were blocked with 100 mg/ml of BSA (Sigma Chemical Co., St. Louis, Mo., USA) in PBS for 2 hours. HUVEC cells were grown to subconfluence (70-80%) in EGM-2 medium, gently trypsinized and resuspended in serum-free medium (1.5×10^5 cells/ml). The cells were mixed with 10 μg/ml of either mouse IgG, (control) (Life Technologies/Gibco BRL, Gaithersberg, Md., USA) or antibody (mouse monoclonal antibody to the human β1 integrin (clone P4C10) (Life Technologies/Gibco BRL); monoclonal antibody to human integrins α1 through α.6 (CHEMICON Int'l, Temecula, Calif., USA); αvβ3 integrin (clone LM609) (CHEMICON Int'l) and incubated for 15 minutes at room temperature, with gentle agitation. One hundred microliters of the cell suspension was then added to each well and incubated for 45 minutes at 37° C. Unattached cells were removed by washing, and the number of attached cells were counted after staining with methylene blue. C-PAE cells were used in separate experiments, following the above procedure.
To determine the attachment of C-PAE cells to plates coated with the Tumstatin deletion mutants, the cell attachment assay was performed as described above (see, e.g., Example 28). Rabbit antibody raised against Tum-4 was prepared as previously described (Kalluri et al., 1997, J. Clin. Invest. 99:2470-8). Goat anti-rabbit IgG antibody conjugated with horseradish peroxidase was purchased from Sigma Chemical Company (St. Louis, Mo., USA). […] Plates coated with Tum-1 (FIG. 36A) were also treated with anti-Tum-4 antibody (1:200 dilution) to block the previously reported (Shahan et al, 1999, Cancer Res. 59:4584-90) αvβ3 binding site, as well as the αvβ5 binding site.
Cell Attachment Activity: Cell attachment using endothelial cells was performed as described above. HUVEC or C-PAE cells were incubated with monoclonal anti-human integrin antibodies, control mouse IgG (10 μg/ml), or synthetic peptide, plated onto pre-coated 96-well plates, and the number of cells attaching to the plates was determined using measurement of methylene blue staining at OD655. […] CNGRC peptide was used as a control.
The cell attachment assay was performed as described above.
Tumstatin produced in 293 human embryonic kidney cells was used to coat tissue culture plates. […] PBS and BSA served as positive and negative controls, respectively.

C-PAE cells [2] = test: Endothelial cell proliferation, methylene blue staining; type: cell-based, bovine; conditions: for inhibition of proliferation of C-PAE cells: 15 μg/ml; for Relative Cell No. (%) C-PAE: 20% FCS, 15 μg/ml recombinant protein

Molecule | inhibition of attachment of C-PAE cells to coated plates by αvβ3 antibody (C-PAE cells [1]) | inhibition of binding of C-PAE cells to coated plates by αvβ5 antibody (C-PAE cells [1]) | inhibition of proliferation of C-PAE cells (C-PAE cells [2]) | Relative Cell No. (%) C-PAE (C-PAE cells [2])
B1 | 62.6% | not inhibited | did not inhibit | 95.7 ± 3.6%
B2 | 69.8% | not inhibited | 73.3% | 34.3 ± 3.9 %
